Assay results as given in patent US20250154276A1 (ZONHON BIOPHARMA INSTITUTE, published 2025).

How the values were obtained:
human CD26 [1] = target: T1, human CD26 (human, UniProt P27487 1-766); test: cell-based or functional assay
human CD26 [2] = target: T1, human CD26; test: cell-based or functional assay; remark: listed apart in the source

Binder	IC50 values (pM) of different bispecific antibodies mediating PBMC cytotoxicity to OS-RC-2 (human CD26 [1])	IC50 values (pM) of different bispecific antibodies mediating PBMC cytotoxicity to different target cells (786-0) (human CD26 [2])	IC50 values (pM) of different bispecific antibodies mediating PBMC cytotoxicity to different target cells (NCI-H226) (human CD26 [2])	IC50 values (pM) of different bispecific antibodies mediating PBMC cytotoxicity to different target cells (OS-RC-2) (human CD26 [2])	IC50 values (pM) of different bispecific antibodies mediating PBMC cytotoxicity to different target cells (PC-3) (human CD26 [2])
ZA23 (bispecific antibody, human IgG1, kappa) heavy 1: QVQLVQSGAEVVKPGASVKISCKASGFNIKDTYIYWVRQRTGQGLEWIGRIEPMNGNTKYDPKFQGRLTMTANTSKNTAYLQLSSLTSEDTAVYYCSRGGWLLLYVMDYWGQGTTVTVSSASTKGPSVFPLAPSSKSTSGGTAALGCLVKDYFPEPVTVSWNSGALTSGVHTFPAVLQSSGLYSLSSVVTVPSSSLGTQTYICNVNHKPSNTKVDKKVEPKSCDKTHTCPPCPAPEFLGGPSVFLFPPKPKDTLMISRTPEVTCVVVDVSQEDPEVQFNWYVDGVEVHNAKTKPREEQFNSTYRVVSVLTVLHQDWLNGKEYKCKVSNKGLPSSIEKTISKAKGQPREPQVYTLPPCQEEMTKNQVSLWCLVKGFYPSDIAVEWESNGQPENNYKTTPPVLDSDGSFFLYSRLTVDKSRWQEGNVFSCSVMHEALHNHYTQKSLSLSLGK light 1: DIVMTQSASSLPVTPGEPASISCRSDKSLLHSNGNTYLYWFLQKPGQSPQVLIYRMSNLASGVPDRFSGSGSGTDFTLTISRVEAEDVGVYYCFQQLEYPYTFGQGTKLEIKRTVAAPSVFIFPPSDEQLKSGTASVVCLLNNFYPREAKVQWKVDNALQSGNSQESVTEQDSKDSTYSLSSTLTLSKADYEKHKVYACEVTHQGLSSPVTKSFNRGEC heavy 2: DVQLVQSGAEVKKPGASVKVSCKASGYTFTRYTMHWVRQAPGQGLEWIGYINPSRGYTNYADSVKGRFTITTDKSTSTAYMELSSLRSEDTATYYCARYYDDHYCLDYWGQGTTVTVSSASTKGPSVFPCAPSSKSTSGGTAALGCLVKDYFPEPVTVSWNSGALTSGVHTFPAVLQSSGLYSLSSVVTVPSSSLGTQTYICNVNHKPSNTKVDKKVEPKSSDKTHTCPPCPAPEFLGGPSVFLFPPKPKDTLMISRTPEVTCVVVDVSQEDPEVQFNWYVDGVEVHNAKTKPREEQFNSTYRVVSVLTVLHQDWLNGKEYKCKVSNKGLPSSIEKTISKAKGQPREPQVCTLPPSQEEMTKNQVSLSCAVKGFYPSDIAVEWESNGQPENNYKTTPPVLDSDGSFFLVSRLTVDKSRWQEGNVFSCSVMHEALHNHYTQKSLSLSLGK light 2: DIVLTQSPATLSLSPGERATLSCRASQSVSYMNWYQQKPGKAPKRWIYDTSKVASGVPARFSGSGSGTDYSLTINSLEAEDAATYYCQQWSSNPLTFGGGTKVEIKRTVAAPSVFICPPSDEQLKSGTASVVCLLNNFYPREAKVQWKVDNALQSGNSQESVTEQDSKDSTYSLSSTLTLSKADYEKHKVYACEVTHQGLSSPVTKSFNRGES	87.5 pM				
19G294 (bispecific antibody) DIVMTQSPSSLSVTPGERVSISCRSDKSLLHSNGNTYLYWFLQKPGQSPQVLIYRMSNLASGVPDRFSGSGSGTDFTLTISRVEAEDVGVYYCFQQLEYPYTFGQGTKLEIKGGGGSGGGGSGGGGSEVQLVQSGAELVKPGASVKLSCAASGFNIKDTYIYWVRQAPGQGLEWVGRIEPMNGNTKYDPKFQGRFTMTANTSKNTAYLQLSSLRSEDTAVYYCSRGGWLLLYVMDYWGQGTLVTVSSGGGGSDVQLVQSGAEVKKPGASVKVSCKASGYTFTRYTMHWVRQAPGQGLEWIGYINPSRGYTNYADSVKGRFTITTDKSTSTAYMELSSLRSEDTATYYCARYYDDHYCLDYWGQGTTVTVSSGGGGSGGGGSGGGGSDIVLTQSPATLSLSPGERATLSCRASQSVSYMNWYQQKPGKAPKRWIYDTSKVASGVPARFSGSGSGTDYSLTINSLEAEDAATYYCQQWSSNPLTFGGGTKVEIK	9.9 pM	4.7 pM	13.7 pM	9.9 pM	4 pM
18G272 (bispecific antibody) DIVMTQSASSLPVTPGEPASISCRSDKSLLHSNGNTYLYWFLQKPGQSPQVLIYRMSNLASGVPDRFSGSGSGTDFTLTISRVEAEDVGVYYCFQQLEYPYTFGQGTKLEIKGGGGSGGGGSGGGGSQVQLVQSGAEVVKPGASVKISCKASGFNIKDTYIYWVRQRTGQGLEWIGRIEPMNGNTKYDPKFQGRLTMTANTSKNTAYLQLSSLTSEDTAVYYCSRGGWLLLYVMDYWGQGTTVTVSSGGGGSDVQLVQSGAEVKKPGASVKVSCKASGYTFTRYTMHWVRQAPGQGLEWIGYINPSRGYTNYADSVKGRFTITTDKSTSTAYMELSSLRSEDTATYYCARYYDDHYCLDYWGQGTTVTVSSGGGGSGGGGSGGGGSDIVLTQSPATLSLSPGERATLSCRASQSVSYMNWYQQKPGKAPKRWIYDTSKVASGVPARFSGSGSGTDYSLTINSLEAEDAATYYCQQWSSNPLTFGGGTKVEIK		41.4 pM	2.6 pM	5.2 pM	6.9 pM
ZA16 (bispecific antibody, human IgG1, kappa) heavy 1: not shown light 1: DIVMTQSPSSLSVTPGERVSISCRSDKSLLHSNGNTYLYWFLQKPGQSPQVLIYRMSNLASGVPDRFSGSGSGTDFTLTISRVEAEDVGVYYCFQQLEYPYTFGQGTKLEIKRTVAAPSVFIFPPSDEQLKSGTASVVCLLNNFYPREAKVQWKVDNALQSGNSQESVTEQDSKDSTYSLSSTLTLSKADYEKHKVYACEVTHQGLSSPVTKSFNRGEC heavy 2: not shown light 2: DIVLTQSPATLSLSPGERATLSCRASQSVSYMNWYQQKPGKAPKRWIYDTSKVASGVPARFSGSGSGTDYSLTINSLEAEDAATYYCQQWSSNPLTFGGGTKVEIKRTVAAPSVFICPPSDEQLKSGTASVVCLLNNFYPREAKVQWKVDNALQSGNSQESVTEQDSKDSTYSLSSTLTLSKADYEKHKVYACEVTHQGLSSPVTKSFNRGES	5.8 pM				
